Source: US20150259664
Positions count from the first letter of the chain named.

Legend:
[1] = target: Escherichia coli Release Factor 1 (RF1), wild type
[2] = target: RF1 variant A-13 (N296K/L297R)
[3] = target: T1, RF1 variant A-17 (N296K/L297R/L298K)
T1 chain: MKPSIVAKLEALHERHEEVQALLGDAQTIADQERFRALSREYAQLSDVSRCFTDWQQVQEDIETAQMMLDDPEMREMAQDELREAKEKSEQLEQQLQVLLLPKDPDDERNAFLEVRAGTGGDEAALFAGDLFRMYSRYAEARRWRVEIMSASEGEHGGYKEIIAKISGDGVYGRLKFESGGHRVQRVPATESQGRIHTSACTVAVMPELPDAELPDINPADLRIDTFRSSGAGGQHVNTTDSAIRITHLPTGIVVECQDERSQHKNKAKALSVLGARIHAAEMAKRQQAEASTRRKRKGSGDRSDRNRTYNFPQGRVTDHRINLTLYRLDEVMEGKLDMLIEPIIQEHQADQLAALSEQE

[4] = target: T2, RF1 variant A-18 (N296K/L297R/L298R)
T2 chain: T1 chain with K298R

B1: Escherichia coli Outer Membrane Protein T1 (OmpT1) (protein)
chain: STETLSFTPDNINADISLGTLSGKTKERVYLAEEGGRKVSQLDWKFNNAAIIKGAINWDLMPQISIGAAGWTTLGSRGGNMVDQDWMDSSNPGTWTDESRHPDTQLNYANEFDLNIKGWLLNEPNYRLGLMAGYQESRYSFTARGGSYIYSSEEGFRDDIGSFPNGERAIGYKQRFKMPYIGLTGSYRYEDFELGGTFKYSGWVESSDNDEHYDPGKRITYRSKVKDQNYYSVAVNAGYYVTPNAKVYVEGAWNRVTNKKGNTSLYDHNNNTSDYSKNGAGIENYNFITTAGLKYTF
In the case of B1, the “cleavage in lysed strain SBJY001, 0, 1, 2 and 3 hours (Western blot)” value [1] is reported as “cleavage of unmodified, wild-type RF1 by strain SBJY001 was not detected over the same time periods”, the “cleavage in lysed recombinant strain, 0, 1, 2 and 3 hours (Western blot)” value (“cleavage in lysed recombinant strain” below) [2] is reported as “the modified RF1 protein variants were efficiently cleaved at all time points tested by the cell-free extract, as determined by Western blot analysis (data not shown)” and the “cleavage in lysed recombinant strain” value [3] is reported as “the modified RF1 protein variants were efficiently cleaved at all time points tested by the cell-free extract, as determined by Western blot analysis (data not shown)”. The “cleavage in lysed recombinant strain” value [4] was “the modified RF1 protein variants were efficiently cleaved at all time points tested by the cell-free extract, as determined by Western blot analysis (data not shown)”.
